Experimental findings from patent US20250019439A1 (Adimab, published 2025) are described below.

For one assay, the target named is T1, ADI-26906 IgG.
T1 construct: anti-CD3 IgG
Briefly: SPR Carterra avidity, CHO anti-ID, *koff limit. As to the method: (§1) Kinetic analysis was conducted at 25° C. in an HBSTE running buffer system (Carterra Cat #3630) using a Carterra LSA (Carterra USA, Salt Lake City, UT). The sample compartment was maintained at 20° C. for the duration of each experiment.
(§2) For antibody capture experiments, a goat anti-human Fc antibody (Jackson ImmunoResearch) was covalently coupled to an HC30M sensor chip surface via standard amine coupling (1:1 EDC:NHS) and then blocked with ethanolamine (1.0 M, pH 8.5). Covalent coupling steps were performed in 25 mM MES buffer (Carterra, Cat #3625) plus 0.05% Tween20. The anti-CD3 antibodies (100 nM in running buffer) were flowed over discrete regions of interest on the chip surface for 5 minutes. […] Dissociation of the anti-idiotype antibodies was monitored for 300s. Several blank buffer samples were injected over the entire chip surface at the start of each non-regenerative kinetic cycle. The preceding blank buffer injection was used for blank surface subtraction. At the end of each non-regenerative kinetic cycle, all surfaces were regenerated via two 30s injections of 10 mM glycine, pH 1.7.
For data processing and fitting, sensorgrams were double reference subtracted with a baseline drift correction of 4 RU. Sensorgrams were y-aligned and baseline corrected, filtered and cropped to include only the association and dissociation steps. Data was fitted to a 1:1 binding model using Carterra Kinetics Data Analysis software version 1.7.1.3055.

For assay [1], the target named is T2, ADI-26920 IgG.
T2 construct: anti-CD3 IgG
Briefly: SPR Carterra avidity, yeast anti-ID. In a few lines:
(§3)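 Anti-human Fc capture chip (amine coupled); anti-CD3 IgG 100 nM, 5 min capture; 25° C, HBSTE. Non-regenerative kinetic cycles, anti-ID dissociation 300s; glycine pH 1.7 regeneration. Double-reference subtraction, 1:1 fit.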

Assay [2] has as its target T3, ADI-76357.
T3 construct: anti-CD3 antibody made in CHO cells, captured by anti-human Fc
Put plainly: SPR Carterra avidity, yeast anti-ID. In outline:
as §3

The next assay concerns the target T4, ADI-26924.
T4 construct: anti-CD3 antibody made in CHO cells, captured by anti-human Fc
Briefly: SPR Carterra avidity, yeast anti-ID. In a few lines:
as §3

Assay [3] concerns the target T5, ADI-26943.
T5 construct: anti-CD3 antibody made in CHO cells, captured by anti-human Fc
Briefly: SPR Carterra avidity, yeast anti-ID. In a few lines:
as §3

Assay [4] deals with T6, ADI-26913 IgG.
T6 construct: anti-CD3 IgG
Briefly: SPR Carterra avidity, yeast anti-ID. In outline: as §3

Assay [5] addresses T7, ADI-26919.
T7 construct: anti-CD3 antibody made in CHO cells, captured by anti-human Fc
Briefly: SPR Carterra avidity, yeast anti-ID. In a few lines: as §3

Another assay has as its target T8, ADI-76360.
T8 construct: anti-CD3 antibody made in CHO cells, captured by anti-human Fc
Briefly: SPR Carterra avidity, CHO anti-ID. As to the method: as §1, §2
(§4) In Tables 10A-10C, anti-CD3 antibodies are listed by ADI number or CTL number in the first column. […] CTL-62223 is mosunetuzumab, CTL-62227 is odronextamab, CTL-62228 is glofitamab, and CTL-62240 is ONO-4685. […] “W.B.” means weak binding under the conditions of this assay and thus a KD was unable to be assigned. “N.B.” means no binding under the conditions of this assay.

The next assay has as its target T9, ADI-67450.
T9 construct: anti-CD3 antibody made in CHO cells, captured by anti-human Fc
Put plainly: SPR Carterra avidity, CHO anti-ID. As for the experimental part:
as §1, §2, §4

A further assay addresses T10, ADI-76358.
T10 construct: anti-CD3 antibody made in CHO cells, captured by anti-human Fc
Put plainly: SPR Carterra avidity, CHO anti-ID. As for the experimental part:
as §1, §2, §4

Another assay addresses T11, ADI-74966.
T11 construct: pH-dependent anti-CD3 antibody made in CHO cells
Put plainly: SPR Carterra avidity, CHO anti-ID. As for the experimental part:
as §1, §2, §4

A further assay deals with T12, ADI-76359.
T12 construct: anti-CD3 antibody made in CHO cells, captured by anti-human Fc
Briefly: SPR Carterra avidity, CHO anti-ID. As to the method: as §1, §2, §4

The target in the next assay is T13, ADI-70330.
T13 construct: anti-CD3 antibody made in CHO cells, captured by anti-human Fc
Briefly: SPR Carterra avidity, CHO anti-ID. As to the method:
as §1, §2, §4

Another assay has as its target T14, ADI-26916 IgG.
T14 construct: anti-CD3 IgG
Put plainly: SPR Carterra avidity, CHO anti-ID. As to the method: as §1, §2, §4

For the next assay, the target named is T15, ADI-76362.
T15 construct: anti-CD3 antibody made in CHO cells, captured by anti-human Fc
Put plainly: SPR Carterra avidity, CHO anti-ID. As to the method: as §1, §2, §4

The next assay has as its target T16, ADI-74968.
T16 construct: pH-dependent anti-CD3 antibody made in CHO cells
Briefly: SPR Carterra avidity, CHO anti-ID. As to the method: as §1, §2, §4

Assay [6] deals with T6, ADI-26913 IgG. Put plainly: SPR Carterra avidity, CHO anti-ID. As to the method:
as §1, §2, §4

The target of the next assay is T17, ADI-22523 IgG.
T17 construct: anti-CD3 IgG
Briefly: BLI; tip anti-ID IgG, solution ADI-22523 IgG. In a few lines: (§5)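 Anti-ID IgG was captured on AHC biosensors, equilibrated in assay buffer for 30 min, then baselined for 60 s. KD = koff/kon came from a 1:1 binding fit.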

The target of assay [7] is T18, ADI-22523 Fab.
T18 construct: anti-CD3 Fab by papain digestion of the IgG
Briefly: BLI; tip anti-ID IgG, solution ADI-22523 Fab. In outline:
as §5

The target in assay [8] is T2, ADI-26920 IgG. Briefly: SPR Carterra avidity, CHO anti-ID. As to the method:
as §1, §2, §4

Assay [9] concerns the target T3, ADI-76357. Briefly: SPR Carterra avidity, CHO anti-ID. As for the experimental part:
as §1, §2, §4

A further assay concerns the target T19, ADI-67447.
T19 construct: anti-CD3 antibody made in CHO cells, captured by anti-human Fc
Briefly: SPR Carterra avidity, CHO anti-ID. As to the method: as §1, §2, §4

Assay [10] deals with T5, ADI-26943. Briefly: SPR Carterra avidity, CHO anti-ID. As to the method:
as §1, §2, §4

The target of assay [11] is T7, ADI-26919. Put plainly: SPR Carterra avidity, CHO anti-ID. As for the experimental part:
as §1, §2, §4

Another assay has as its target T20, CTL-19672 Fab.
T20 construct: anti-CD3 Fab by papain digestion of the IgG1
Put plainly: BLI; tip ADI-34145 IgG, solution anti-CD3 Fab. As to the method: (§6) ForteBio affinity measurements were performed generally as previously described (Estep et al., MAbs. 2013 5(2):270-8). Briefly, ForteBio affinity measurements were performed by loading antibody IgG or Fabs on-line onto AHC sensors. Sensors were equilibrated off-line in assay buffer for 30 minutes and then monitored on-line for 60 seconds for baseline establishment. For avid binding measurement, sensors with loaded antibodies were exposed to IgG or Fab solutions for 3 minutes, afterwards they were transferred to assay buffer for 3 minutes for off-rate measurement. Kinetics data were fit using a 1:1 binding model in the data analysis software provided by ForteBio to obtain equilibrium dissociation constant (KD=koff/kₒₙ) values. In each column, tip-immobilized antibodies are listed first and solution antibodies second.
(§7) CTL-19613 is an IgG1 antibody prepared with anti-CD3 variable domains corresponding with those of clone 12C described in United States Publication Number US 2010/0183615 (e.g., see paragraphs 469-479 and FIG. 25 thereof), which also make up the CD3 binding domain of the bispecific antibody pasotuxizumab. […] In each column, tip-immobilized antibodies are listed first and solution antibodies second.

A further assay addresses T21, CTL-19613 Fab.
T21 construct: anti-CD3 Fab by papain digestion of the IgG1
Briefly: BLI; tip ADI-34145 IgG, solution anti-CD3 Fab. As to the method: as §6, §7

Assay [12] addresses T18, ADI-22523 Fab. Put plainly: BLI; tip ADI-34145 IgG, solution anti-CD3 Fab. As to the method: as §6, §7
The target of the next assay is T22, ADI-26920 Fab.
T22 construct: anti-CD3 Fab by papain digestion of the IgG
Put plainly: BLI; tip ADI-34145 IgG, solution anti-CD3 Fab. As to the method: as §6, §7

T6 sequence (VH, as listed by the source limits assumed, chain 1 of 2): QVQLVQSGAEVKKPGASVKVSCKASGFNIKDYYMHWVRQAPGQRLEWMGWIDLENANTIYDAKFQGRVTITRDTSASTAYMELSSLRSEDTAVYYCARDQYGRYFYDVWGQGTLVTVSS
T6 sequence (VL, as listed by the source limits assumed, chain 2 of 2): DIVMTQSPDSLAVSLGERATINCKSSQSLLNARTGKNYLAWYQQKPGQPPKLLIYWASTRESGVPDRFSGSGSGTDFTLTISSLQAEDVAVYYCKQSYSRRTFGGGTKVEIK
T7 sequence (VH, as listed by the source limits assumed, chain 1 of 2): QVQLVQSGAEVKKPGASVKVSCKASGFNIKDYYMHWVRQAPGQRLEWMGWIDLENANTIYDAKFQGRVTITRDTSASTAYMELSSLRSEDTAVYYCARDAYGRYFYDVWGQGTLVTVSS
T7 sequence (VL, as listed by the source limits assumed, chain 2 of 2): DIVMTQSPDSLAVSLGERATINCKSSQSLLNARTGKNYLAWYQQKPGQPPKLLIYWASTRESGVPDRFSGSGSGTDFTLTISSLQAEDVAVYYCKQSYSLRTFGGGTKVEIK
T18 sequence (VH, as listed by the source limits assumed, chain 1 of 2): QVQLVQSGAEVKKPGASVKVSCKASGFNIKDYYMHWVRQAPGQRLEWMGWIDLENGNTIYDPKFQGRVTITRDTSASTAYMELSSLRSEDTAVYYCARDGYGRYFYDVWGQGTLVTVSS
T18 sequence (VL, as listed by the source limits assumed, chain 2 of 2): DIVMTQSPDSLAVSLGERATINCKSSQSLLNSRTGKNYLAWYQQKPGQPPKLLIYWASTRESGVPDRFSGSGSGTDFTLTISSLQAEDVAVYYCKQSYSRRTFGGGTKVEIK
T5 sequence (VH, as listed by the source, chain 1 of 2): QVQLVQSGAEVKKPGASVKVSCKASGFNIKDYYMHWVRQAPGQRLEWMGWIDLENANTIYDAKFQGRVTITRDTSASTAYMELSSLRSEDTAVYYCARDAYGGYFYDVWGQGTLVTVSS
T5 sequence (VL, as listed by the source, chain 2 of 2): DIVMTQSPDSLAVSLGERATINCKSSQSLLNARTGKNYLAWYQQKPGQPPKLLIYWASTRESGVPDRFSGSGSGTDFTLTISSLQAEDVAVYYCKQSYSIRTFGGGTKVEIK
T2 sequence (VH, as listed by the source limits assumed, chain 1 of 2): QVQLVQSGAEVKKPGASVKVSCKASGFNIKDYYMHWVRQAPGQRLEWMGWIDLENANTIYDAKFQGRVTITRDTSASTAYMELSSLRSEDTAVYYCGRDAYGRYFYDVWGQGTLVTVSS
T3 sequence (VH, as listed by the source, chain 1 of 2): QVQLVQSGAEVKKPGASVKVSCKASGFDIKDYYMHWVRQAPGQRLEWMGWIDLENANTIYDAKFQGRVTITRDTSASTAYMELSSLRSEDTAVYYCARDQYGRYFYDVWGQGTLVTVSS
T16 sequence (VH, as listed by the source, chain 1 of 2): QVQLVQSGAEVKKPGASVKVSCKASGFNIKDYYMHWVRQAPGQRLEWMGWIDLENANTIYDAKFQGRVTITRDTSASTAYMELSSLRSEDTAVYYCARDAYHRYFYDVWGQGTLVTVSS
T16 sequence (VL, as listed by the source, chain 2 of 2): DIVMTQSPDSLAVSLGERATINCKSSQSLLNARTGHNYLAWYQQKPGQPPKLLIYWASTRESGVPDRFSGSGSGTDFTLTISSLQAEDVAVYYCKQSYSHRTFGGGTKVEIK
T4 sequence (VH, as listed by the source, chain 1 of 2): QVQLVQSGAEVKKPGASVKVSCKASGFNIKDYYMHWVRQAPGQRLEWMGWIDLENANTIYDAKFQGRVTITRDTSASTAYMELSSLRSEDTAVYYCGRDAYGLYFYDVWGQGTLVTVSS
T14 sequence (VH, as listed by the source, chain 1 of 2): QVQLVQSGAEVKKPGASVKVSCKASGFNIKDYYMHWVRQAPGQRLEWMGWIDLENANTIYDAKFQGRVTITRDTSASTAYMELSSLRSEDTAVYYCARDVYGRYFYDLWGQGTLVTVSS
T12 sequence (VH, as listed by the source, chain 1 of 2): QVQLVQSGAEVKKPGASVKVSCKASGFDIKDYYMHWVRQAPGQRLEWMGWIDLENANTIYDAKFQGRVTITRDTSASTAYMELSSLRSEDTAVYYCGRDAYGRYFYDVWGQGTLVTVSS
T19 sequence (VH, as listed by the source limits assumed, chain 1 of 2): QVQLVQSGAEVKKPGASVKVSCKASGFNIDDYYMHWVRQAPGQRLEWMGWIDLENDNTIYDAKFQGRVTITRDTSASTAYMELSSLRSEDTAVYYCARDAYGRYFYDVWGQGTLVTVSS
T8 sequence (VH, as listed by the source, chain 1 of 2): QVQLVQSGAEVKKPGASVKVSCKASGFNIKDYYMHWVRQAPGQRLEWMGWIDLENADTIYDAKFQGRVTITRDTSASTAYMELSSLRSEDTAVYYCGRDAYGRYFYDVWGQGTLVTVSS
T9 sequence (VH, as listed by the source limits assumed, chain 1 of 2): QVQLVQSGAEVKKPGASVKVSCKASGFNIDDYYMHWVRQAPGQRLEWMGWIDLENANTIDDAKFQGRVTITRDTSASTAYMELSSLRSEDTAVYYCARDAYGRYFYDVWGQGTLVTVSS
T11 sequence (VH, as listed by the source, chain 1 of 2): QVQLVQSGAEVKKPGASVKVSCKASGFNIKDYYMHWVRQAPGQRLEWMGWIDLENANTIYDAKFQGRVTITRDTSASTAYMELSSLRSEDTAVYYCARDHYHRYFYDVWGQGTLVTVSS
T15 sequence (VH, as listed by the source, chain 1 of 2): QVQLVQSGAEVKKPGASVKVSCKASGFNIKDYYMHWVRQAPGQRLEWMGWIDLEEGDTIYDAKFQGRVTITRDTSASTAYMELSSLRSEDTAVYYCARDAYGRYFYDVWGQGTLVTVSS
T13 sequence (VH, as listed by the source limits assumed, chain 1 of 2): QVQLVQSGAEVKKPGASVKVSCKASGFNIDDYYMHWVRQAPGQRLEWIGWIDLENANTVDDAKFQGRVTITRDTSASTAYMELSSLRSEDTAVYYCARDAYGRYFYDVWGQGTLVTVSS
T13 sequence (VL, as listed by the source limits assumed, chain 2 of 2): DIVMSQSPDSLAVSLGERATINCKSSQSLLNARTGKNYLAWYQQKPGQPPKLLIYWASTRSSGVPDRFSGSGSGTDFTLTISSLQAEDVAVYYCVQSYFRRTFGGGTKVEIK
T20 sequence (VH, as listed by the source limits assumed, chain 1 of 2): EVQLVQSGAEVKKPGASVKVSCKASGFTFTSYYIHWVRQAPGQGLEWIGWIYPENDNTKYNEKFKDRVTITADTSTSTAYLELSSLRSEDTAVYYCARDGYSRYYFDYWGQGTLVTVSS
T20 sequence (VL, as listed by the source limits assumed, chain 2 of 2): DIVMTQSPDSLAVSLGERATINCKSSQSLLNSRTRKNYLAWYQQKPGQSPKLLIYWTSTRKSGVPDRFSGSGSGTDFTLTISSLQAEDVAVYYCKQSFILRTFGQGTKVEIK
T10 sequence (VH, as listed by the source, chain 1 of 2): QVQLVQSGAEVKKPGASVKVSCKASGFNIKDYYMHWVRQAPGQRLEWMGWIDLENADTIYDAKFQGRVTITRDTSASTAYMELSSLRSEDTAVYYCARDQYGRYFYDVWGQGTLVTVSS

B1: ADI-34134 IgG (antibody, V domains shown)
VH: QVQLVQSGAEVKKPGSSVKVSCKASGGTFSSYAISWVRQAPGQGLEWMGGIIPIFGTANYAQKFQGRVTITADESTSTAYMELSSLRSEDTAVYYCARGAPNYYGSGGYDDGWFDPWGQGTLVTVSS
VL: EIVLTQSPGTLSLSPGERATLSCRASQSVSSDYLAWYQQKPGQAPRLLIYGASSRATGIPDRFSGSGSGTDFTLTISRLEPEDFAVYYCQQFGRVPTFGGGTKVEIK
As for B1, the Kd with ADI-26906 IgG came to 0.18 nM; with ADI-26920 IgG [1], 16 nM; with ADI-76357 [2], 9.5 nM; with ADI-26924, 20 nM; in the assay with ADI-26943 [3], 13 nM; with ADI-26913 IgG [4], 21 nM. The Kd with ADI-26919 [5] was 9.1 nM; in the assay with ADI-76360, 0.21 nM; with ADI-67450, 0.68 nM; with ADI-76358, 0.54 nM; with ADI-74966 it was 0.39 nM; with ADI-76359, 0.15 nM. Moreover, the Kd in the assay with ADI-70330 stood at 0.64 nM; with ADI-26916 IgG, 0.17 nM; with ADI-76362, 0.23 nM; with ADI-74968, 0.78 nM; with ADI-26913 IgG [6] it was 0.13 nM; with ADI-22523 IgG it was 0.46 nM. The molecule also registered a Kd with ADI-22523 Fab [7] of 5.62 nM.

B2: ADI-34145 IgG (antibody, V domains shown)
VH: EVQLLESGGGLVQPGGSLRLSCAASGFTFSSYAMSWVRQAPGKGLEWVSTISGSGGSTYYADSVKGRFTISRDNSKNTLYLQMNSLRAEDTAVYYCARLGGRRGSGSSYYYYYGMDVWGQGTTVTVSS
VL: not shown
notes: anti-ID IgG
For the molecule B2, the Kd turned out to be 6.4 nM with ADI-26906 IgG; 8.6 nM with ADI-26920 IgG [1]; 23 nM with ADI-76357 [2]; 17 nM in the assay with ADI-26924; 9.5 nM with ADI-26943 [3]; 18 nM with ADI-26913 IgG [4]. Also, the Kd turned out to be 18 nM in the assay with ADI-26919 [5]; 15 nM with ADI-26920 IgG [8]; 5.6 nM with ADI-76357 [9]; 14 nM in the assay with ADI-67447; 8 nM in the assay with ADI-76359; 4.2 nM in the assay with ADI-26943 [10]. Moreover, the Kd in the assay with ADI-26916 IgG was found to be 17 nM; with ADI-74968, 41 nM; with ADI-26919 [11], 12 nM; with ADI-22523 IgG, 2.72 nM; in the assay with ADI-22523 Fab [12] it was 3.16 nM; with ADI-26920 Fab, 3.71 nM. The Kd in the assay with ADI-22523 Fab [7] is 4.13 nM. For the same molecule, the binding result in the assay with CTL-19672 Fab and with CTL-19613 Fab was “no binding” each time.
